The text below walks through data of patent US20090180952A1.

One may read the Kd as a measure of binding affinity in units of concentration.

Assay [1] has as its target uPAR on the surface of HeLa cells, Q03405. Kind of assay: 125I-ATN-658 saturation binding to HeLa cells.
The target of assay [2] is recombinant soluble urokinase plasminogen activator receptor (suPAR, aa 1-279) (UniProt Q03405). Kind of assay: direct binding assay (format and antigen form not stated).

uPAR on the surface of HeLa cells, Q03405, sequence (Q03405 23-305 limits assumed): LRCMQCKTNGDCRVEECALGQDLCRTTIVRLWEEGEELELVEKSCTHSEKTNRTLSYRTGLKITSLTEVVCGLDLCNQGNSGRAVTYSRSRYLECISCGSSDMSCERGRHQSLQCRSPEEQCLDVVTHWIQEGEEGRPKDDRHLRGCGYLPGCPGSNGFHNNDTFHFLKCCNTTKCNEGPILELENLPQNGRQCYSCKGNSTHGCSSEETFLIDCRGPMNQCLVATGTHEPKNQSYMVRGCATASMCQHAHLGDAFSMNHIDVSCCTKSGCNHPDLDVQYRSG

B1: mAb ATN-658 (antibody, IgG1, V domains shown)
VL: not shown
VH: VQLQESGPELVKTGASVKISCKASGYSFTSYYMHWVKQSHGKSLEWIGEINPYNGGASYNQKIKGRATFTVDTSSRTAYMQFNSLTSEDSAVYYCARSIYGHSVLDYWGQGTTVTVS
modifications: not checked
On to B1, for which the Kd in assay [1] is 1.5 nM.

B2: mAb ATN-615 (antibody, IgG1, V domains shown)
VH: VKLQQSGPEVVKPGASVKISCKASGYSFTNFYIHWVKQRPGQGLEWIGWIFHGSDNTEYNEKFKDKATLTADTSSSTAYMQLSSLTSEDSAVYFCARWGPHWYFDVWGQGTTVTVSS
VL: DIVLTQSPDITAASLGQKVTITCSASSSVSYMHWYQQKSGTSPKPWIFEISKLASGVPARFSGSGSGTSYSLTISSMEAEDAAIYYCQQWNYPFTFGGGTKLEIKR
For B2, the Kd in assay [2] is 2 nM.
